Assay results published in US20140087995A1 (published 2014).
Numbered stars: 1 amine (or outer) side, 2 acyl side, 3 side chain; on linkers, the order of the positions; unused ones are H or OH. Bridge positions count the residues as written; N and C are the ends. Side chains are listed from the residue outwards. Ends that are not written are not given here. * marks the point of attachment. C20 diacid = O=C(O)CCCCCCCCCCCCCCCCCCC(=O)*; γGlu = O=C(O)[C@H](CCC(=O)[*:2])N[*:1]; AEEA = NCCOCCOCC(=O)O

T1: human amylin receptor (human, UniProt P30988 25-474; O60896 24-148, limits assumed)
T1 construct: whole, on cells; Calcitonin receptor plus RAMP-3 gives the amylin 3(a) receptor; membranes of Amylin 3(a)/CRE-luc cells were used; also called hAmylin-R; hAmylinR
T1 sequence (looked up) 1: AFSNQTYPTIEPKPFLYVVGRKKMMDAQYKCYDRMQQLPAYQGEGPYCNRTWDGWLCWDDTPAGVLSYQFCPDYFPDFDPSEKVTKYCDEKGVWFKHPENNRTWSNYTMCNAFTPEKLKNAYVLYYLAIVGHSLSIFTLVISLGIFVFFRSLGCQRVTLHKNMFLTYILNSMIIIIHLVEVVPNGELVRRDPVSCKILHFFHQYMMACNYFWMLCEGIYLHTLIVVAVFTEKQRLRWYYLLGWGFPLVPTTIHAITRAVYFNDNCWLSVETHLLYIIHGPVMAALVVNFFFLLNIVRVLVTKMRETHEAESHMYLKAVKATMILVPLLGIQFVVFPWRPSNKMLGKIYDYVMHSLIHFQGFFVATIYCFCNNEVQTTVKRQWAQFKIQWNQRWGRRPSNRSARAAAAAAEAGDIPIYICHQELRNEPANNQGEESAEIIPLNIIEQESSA
T1 sequence (looked up) 2: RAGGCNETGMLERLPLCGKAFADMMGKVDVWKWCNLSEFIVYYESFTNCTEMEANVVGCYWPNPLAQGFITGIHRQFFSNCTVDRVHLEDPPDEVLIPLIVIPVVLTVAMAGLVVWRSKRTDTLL


target: T1, human amylin receptor; assay: SPA competition binding, displacement of 125I-rat amylin from membranes with human amylin 3(a) receptor (Assay V)
Method in brief: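 Cell membranes were prepared by homogenisation in Na-HEPES/EDTA buffer, pH 7.4, and stored at −80° C. They were then coupled to SPA beads at 35 ng/μL final and exposed to compounds in assay buffer containing CaCl2, MgCl₂, OA and Tween20. After 120 min at 25° C, plates were counted and IC₅₀ derived.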

| IC50 [pM] | Binder |
| --- | --- |
| 195 | {C20 diacid-γGlu}-GRCNTATCATQRLANFLRHSSPNFGAIPSSTNVGSNTY-NH2 (disulfide 3-8; SMILES CC[C@H](C)[C@H](NC(=O)[C@H](C)NC(=O)CNC(=O)[C@H](Cc1ccccc1)NC(=O)[C@H](CC(N)=O)NC(=O)[C@@H]1CCCN1C(=O)[C@H](CO)NC(=O)[C@H](CO)NC(=O)[C@H](Cc1c[nH]cn1)NC(=O)[C@H](CCCNC(=N)N)NC(=O)[C@H](CC(C)C)NC(=O)[C@H](Cc1ccccc1)NC(=O)[C@H](CC(N)=O)NC(=O)[C@H](C)NC(=O)[C@H](CC(C)C)NC(=O)[C@H](CCCNC(=N)N)NC(=O)[C@H](CCC(N)=O)NC(=O)[C@@H](NC(=O)[C@H](C)NC(=O)[C@@H]1CSSC[C@H](NC(=O)[C@H](CCCNC(=N)N)NC(=O)CNC(=O)CC[C@H](NC(=O)CCCCCCCCCCCCCCCCCCC(=O)O)C(=O)O)C(=O)N[C@@H](CC(N)=O)C(=O)N[C@@H]([C@@H](C)O)C(=O)N[C@@H](C)C(=O)N[C@@H]([C@@H](C)O)C(=O)N1)[C@@H](C)O)C(=O)N1CCC[C@H]1C(=O)N[C@@H](CO)C(=O)N[C@@H](CO)C(=O)N[C@H](C(=O)N[C@@H](CC(N)=O)C(=O)N[C@H](C(=O)NCC(=O)N[C@@H](CO)C(=O)N[C@@H](CC(N)=O)C(=O)N[C@H](C(=O)N[C@@H](Cc1ccc(O)cc1)C(N)=O)[C@@H](C)O)C(C)C)[C@@H](C)O, also called -1G, 1R, 17R, 21P, 27P) [N^-1-[(4S)-4-carboxy-4-(19-carboxynonadecanoylamino)butanoyl]-Gly[Arg1,Arg17,Pro21,Pro27]-h-amylin] |
| 426 | {C20 diacid-γGlu}-GRCNTATCATQRLAAFLRHSSPNFGAIPSSTNVGHNTY-NH2 (disulfide 3-8; SMILES CC[C@H](C)[C@H](NC(=O)[C@H](C)NC(=O)CNC(=O)[C@H](Cc1ccccc1)NC(=O)[C@H](CC(N)=O)NC(=O)[C@@H]1CCCN1C(=O)[C@H](CO)NC(=O)[C@H](CO)NC(=O)[C@H](Cc1c[nH]cn1)NC(=O)[C@H](CCCNC(=N)N)NC(=O)[C@H](CC(C)C)NC(=O)[C@H](Cc1ccccc1)NC(=O)[C@H](C)NC(=O)[C@H](C)NC(=O)[C@H](CC(C)C)NC(=O)[C@H](CCCNC(=N)N)NC(=O)[C@H](CCC(N)=O)NC(=O)[C@@H](NC(=O)[C@H](C)NC(=O)[C@@H]1CSSC[C@H](NC(=O)[C@H](CCCNC(=N)N)NC(=O)CNC(=O)CC[C@H](NC(=O)CCCCCCCCCCCCCCCCCCC(=O)O)C(=O)O)C(=O)N[C@@H](CC(N)=O)C(=O)N[C@@H]([C@@H](C)O)C(=O)N[C@@H](C)C(=O)N[C@@H]([C@@H](C)O)C(=O)N1)[C@@H](C)O)C(=O)N1CCC[C@H]1C(=O)N[C@@H](CO)C(=O)N[C@@H](CO)C(=O)N[C@H](C(=O)N[C@@H](CC(N)=O)C(=O)N[C@H](C(=O)NCC(=O)N[C@@H](Cc1c[nH]cn1)C(=O)N[C@@H](CC(N)=O)C(=O)N[C@H](C(=O)N[C@@H](Cc1ccc(O)cc1)C(N)=O)[C@@H](C)O)C(C)C)[C@@H](C)O, also called -1G, 1R, 14A, 17R, 21P, 27P, 34H) |
| 76 | K([AEEA-C20 diacid])CNTATCATQRLANFLRHSSPNFGAIPSSTNVGSNTY-NH2 (disulfide 2-7; N-terminus assumed; SMILES CC[C@H](C)[C@H](NC(=O)[C@H](C)NC(=O)CNC(=O)[C@H](Cc1ccccc1)NC(=O)[C@H](CC(N)=O)NC(=O)[C@@H]1CCCN1C(=O)[C@H](CO)NC(=O)[C@H](CO)NC(=O)[C@H](Cc1c[nH]cn1)NC(=O)[C@H](CCCNC(=N)N)NC(=O)[C@H](CC(C)C)NC(=O)[C@H](Cc1ccccc1)NC(=O)[C@H](CC(N)=O)NC(=O)[C@H](C)NC(=O)[C@H](CC(C)C)NC(=O)[C@H](CCCNC(=N)N)NC(=O)[C@H](CCC(N)=O)NC(=O)[C@@H](NC(=O)[C@H](C)NC(=O)[C@@H]1CSSC[C@H](NC(=O)[C@@H](N)CCCCNC(=O)COCCOCCNC(=O)CCCCCCCCCCCCCCCCCCC(=O)O)C(=O)N[C@@H](CC(N)=O)C(=O)N[C@@H]([C@@H](C)O)C(=O)N[C@@H](C)C(=O)N[C@@H]([C@@H](C)O)C(=O)N1)[C@@H](C)O)C(=O)N1CCC[C@H]1C(=O)N[C@@H](CO)C(=O)N[C@@H](CO)C(=O)N[C@H](C(=O)N[C@@H](CC(N)=O)C(=O)N[C@H](C(=O)NCC(=O)N[C@@H](CO)C(=O)N[C@@H](CC(N)=O)C(=O)N[C@H](C(=O)N[C@@H](Cc1ccc(O)cc1)C(N)=O)[C@@H](C)O)C(C)C)[C@@H](C)O, also called 17R, 21P, 27P) [N^ε1-[2-[2-[2-(19-carboxynonadecanoylamino)ethoxy]ethoxy]acetyl]-[Arg17,Pro21,Pro27]-h-amylin] |
